Article PMC5078793

Molecular target: ADAMTS6 C-terminal region (human) (UniProt Q9UKP5)
Assay: SPR; Biacore; ADAMTS protein (full-length or C-terminal region) immobilised by amine coupling on CM5 (~3000 RU); analyte injected at 30 ul/min; 10 mM HEPES pH 7.4, 0.1 M NaCl, 0.5 mM CaCl2, 0.005% P20; 1:1 kinetics or equilibrium analysis

Sequence of ADAMTS6 C-terminal region (human) (Q9UKP5 558-1117): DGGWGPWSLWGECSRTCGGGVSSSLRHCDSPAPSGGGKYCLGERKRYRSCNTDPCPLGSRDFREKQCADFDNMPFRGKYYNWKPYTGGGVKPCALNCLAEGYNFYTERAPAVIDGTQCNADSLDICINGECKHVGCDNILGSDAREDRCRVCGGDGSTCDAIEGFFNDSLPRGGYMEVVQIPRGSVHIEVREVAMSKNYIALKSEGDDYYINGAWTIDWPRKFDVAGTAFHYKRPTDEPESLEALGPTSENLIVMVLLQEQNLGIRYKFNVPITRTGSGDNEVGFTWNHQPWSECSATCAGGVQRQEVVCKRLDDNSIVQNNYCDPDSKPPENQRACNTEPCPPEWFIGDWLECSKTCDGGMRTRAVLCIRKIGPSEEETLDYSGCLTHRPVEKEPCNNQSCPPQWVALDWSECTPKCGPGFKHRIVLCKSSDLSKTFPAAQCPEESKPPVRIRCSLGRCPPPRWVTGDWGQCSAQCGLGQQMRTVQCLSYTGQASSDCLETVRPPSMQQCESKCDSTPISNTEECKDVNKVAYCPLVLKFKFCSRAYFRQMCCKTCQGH

Substance: cellular fibronectin (natural protein)
- Kd: 9.8 nM
